Values quoted from earlier work, collected in article PMC6470598.

Molecular target: CTLA-4 (Homo sapiens) (UniProt P16410)
Sequence of UniProt P16410 (P16410 36-161): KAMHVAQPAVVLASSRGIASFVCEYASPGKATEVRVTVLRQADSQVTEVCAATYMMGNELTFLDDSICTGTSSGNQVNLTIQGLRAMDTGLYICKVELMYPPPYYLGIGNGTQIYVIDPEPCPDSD

Question: For tremelimumab, which Kd is on record?
Answer: 5.9 nM
